The record followed here is patent US20260022175A1 (Chugai, published 2026).

Experiment [1] has as its target T1, human FcRn (human, UniProt P55899 24-290; P61769 21-119).
T1 construct: Prepared by the method of WO 2010/107110; also called hFcRn
Briefly: SPR Biacore T200, Ab captured via Fab-kappa, pH 6.0, steady state.

For experiment [2], the target named is T2, human FcγRIIa H allotype extracellular domain with C-terminal His-tag (human, UniProt P12318 34-217).
T2 construct: extracellular domain; also called hFcγR IIa H
T2 sequence (looked up): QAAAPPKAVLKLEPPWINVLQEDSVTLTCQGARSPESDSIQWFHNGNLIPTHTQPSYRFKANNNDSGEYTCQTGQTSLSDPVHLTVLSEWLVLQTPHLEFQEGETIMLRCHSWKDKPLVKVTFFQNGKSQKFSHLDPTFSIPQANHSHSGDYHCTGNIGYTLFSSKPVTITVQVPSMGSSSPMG
Briefly: SPR; KD of 04H1389-G1m/04L1615-k0MT divided by KD of variant.

Experiment [3] concerns the target T3, human FcγRIa extracellular domain with C-terminal His-tag (human, UniProt P12314 16-292).
T3 construct: extracellular domain; also called hFcγR Ia; hFcγRIa
The description is as above.

Experiment [4] deals with T1, human FcRn. Described as above.
Experiment [5] has as its target T4, human FcγRIIIa V allotype extracellular domain with C-terminal His-tag (human, UniProt P08637 17-208).
T4 construct: extracellular domain; also called hFcγR IIIa V
The experiment is described as above.

Experiment [6] addresses T5, human FcγRIIa R allotype extracellular domain with C-terminal His-tag (human, UniProt P12318 34-217).
T5 construct: extracellular domain; also called hFcγR IIa R
T5 sequence (looked up): T2 sequence (looked up) with H134R
The description is as above.

The target in experiment [7] is T6, human FcγRIIb extracellular domain with C-terminal His-tag (human, UniProt P31994 43-217).
T6 construct: extracellular domain; also called hFcγR IIb
T6 sequence (looked up): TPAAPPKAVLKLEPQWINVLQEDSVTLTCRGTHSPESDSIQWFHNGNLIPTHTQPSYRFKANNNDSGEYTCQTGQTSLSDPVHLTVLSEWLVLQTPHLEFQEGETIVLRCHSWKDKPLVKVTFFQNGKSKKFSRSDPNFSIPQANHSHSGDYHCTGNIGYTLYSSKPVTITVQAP
Briefly: SPR; FcγRIIb bound amount per unit captured Ab.

Experiment [8] has as its target T2, human FcγRIIa H allotype extracellular …. As to the kind of experiment: SPR Biacore T200, Ab captured via Fab-kappa, pH 7.4, 25C. (In SPR one partner is held on a chip, and binding of the other changes the refractive index at the surface.)
Experiment [9] concerns the target T3, human FcγRIa extracellular domain with …. The experiment is described as above.
In experiment [10] the target is T7, human FcγRIIIa F allotype extracellular domain with C-terminal His-tag (human, UniProt P08637 17-208).
T7 construct: extracellular domain; also called hFcγR IIIa F
T7 sequence (P08637 17-208): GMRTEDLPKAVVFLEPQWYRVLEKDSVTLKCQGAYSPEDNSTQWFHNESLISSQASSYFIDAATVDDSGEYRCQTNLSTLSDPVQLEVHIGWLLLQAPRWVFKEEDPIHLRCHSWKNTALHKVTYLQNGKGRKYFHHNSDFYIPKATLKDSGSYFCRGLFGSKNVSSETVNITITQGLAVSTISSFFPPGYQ
The experiment is described as above.

In experiment [11] the target is T4, human FcγRIIIa V allotype extracellular …. Described as above.
For experiment [12], the target named is T5, human FcγRIIa R allotype extracellular …. The experiment is described as above.
In experiment [13] the target is T6, human FcγRIIb extracellular domain with …. As to the kind of experiment: SPR; binding amount divided by that of 04H1389-G1m/04L1615-k0MT.
Experiment [14] deals with T8, hCTLA4-His-BAP (human CTLA4 extracellular region with C-terminal His-tag and BAP-tag) (human, biotin on the BAP-tag).
T8 construct: also called hCTLA4-His-Biotin
T8 sequence (chain, as listed by the source limits assumed): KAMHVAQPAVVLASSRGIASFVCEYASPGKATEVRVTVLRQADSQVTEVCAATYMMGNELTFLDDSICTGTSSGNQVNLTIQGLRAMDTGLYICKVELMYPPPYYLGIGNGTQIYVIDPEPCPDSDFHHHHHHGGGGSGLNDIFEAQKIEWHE
Briefly: SPR 37C, hCTLA4 1000 nM, ATP 100 µM; ATP 100 µM; binding amount at 1000 nM hCTLA4.

The target in experiment [15] is T8, hCTLA4-His-BAP (human CTLA4 …). As to the kind of experiment: SPR 37C, hCTLA4 1000 nM, ATP 10 µM; ATP 10 µM; binding amount at 1000 nM hCTLA4.
Experiment [16] shares this target. Briefly: SPR 37C, hCTLA4 1000 nM, no ATP; no ATP; binding amount at 1000 nM hCTLA4.
Experiment [17] has the same target. Briefly: SPR 37C, hCTLA4 1000 nM, ATP 1 µM; ATP 1 µM; binding amount at 1000 nM hCTLA4.
Experiment [18] shares this target. Briefly: SPR 37C, ATP 100 µM; ATP 100 µM.

Numbering of substitutions follows the chain as printed. In names and notes the source's numbering stands.

T3 sequence (P12314 16-292): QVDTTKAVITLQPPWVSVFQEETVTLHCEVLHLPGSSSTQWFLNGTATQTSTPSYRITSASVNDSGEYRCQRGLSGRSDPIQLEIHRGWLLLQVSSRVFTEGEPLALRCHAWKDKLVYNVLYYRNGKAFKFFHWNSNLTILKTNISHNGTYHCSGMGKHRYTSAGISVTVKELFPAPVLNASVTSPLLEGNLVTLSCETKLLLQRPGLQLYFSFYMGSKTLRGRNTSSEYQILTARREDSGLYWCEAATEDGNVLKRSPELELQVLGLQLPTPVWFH
T4 sequence (P08637 17-208 F176V): as the sequence (P08637 17-208) above, with F160V counted along it
T1 sequence (P55899 24-290 limits assumed, chain 1 of 2): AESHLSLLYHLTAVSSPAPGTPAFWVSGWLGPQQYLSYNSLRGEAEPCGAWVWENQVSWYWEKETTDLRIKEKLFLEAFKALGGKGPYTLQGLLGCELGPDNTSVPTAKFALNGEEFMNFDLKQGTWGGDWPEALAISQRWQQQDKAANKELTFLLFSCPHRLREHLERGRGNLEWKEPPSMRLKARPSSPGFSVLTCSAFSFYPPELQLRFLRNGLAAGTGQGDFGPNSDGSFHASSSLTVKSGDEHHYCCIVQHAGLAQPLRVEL
T1 sequence (P61769 21-119 limits assumed, chain 2 of 2): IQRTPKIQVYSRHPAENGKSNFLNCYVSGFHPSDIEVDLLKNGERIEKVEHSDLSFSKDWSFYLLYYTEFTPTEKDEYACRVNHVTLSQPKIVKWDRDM

B1: 04H1389-Ks481/04L1615-k0MT//04H1389-Hs498/04L1615-k0MT (antibody)
heavy 1: EVQLVESGGGLVKPGGSLRLSCAASGFTFSSKTMNWVRQAPGKGLEWVSSISTQSHYIYYAESVKGRFTISRDNAKNSLYLQMNSLRAEDTAVYYCARYGKREDMLWVFDYWGQGTLVTVSSASTKGPSVFPLAPSSKSTSGGTAALGCLVKDYFPEPVTVSWNSGALTSGVHTFPAVLQSSGLYSLSSVVTVPSSSLGTQTYICNVNHKPSNTKVDKRVEPKSCDKTHTCPPCPAPEFQWGPMVFLFPPKPKDVLMISRTPEVTCVVVDVSDEEPEVKFNWYVDGVEVHNAKTKPREEQYNATYRVVSVLPVLHQDWLNGKEYKCKVSNDALPAPEEKTISKAKGQPREPQVYTLPPSREEMTKNQVSLWCLVKGFYPSDIAVEWESNGQPENNYKTTPPVLDSDGSFFLYSKLTVDKSRWQQGNVFSCSVMHEALHAHTTRKELSLSP
heavy 2: B1 heavy 1 with F239L, Q240L, W241A, M244S, D273H, K339E, W371S, L373A, Y412V
light: DIVMTQSPLSLPVTPGEPASISCQGPSTGVGDYNYVHWYQQKPGQAPRLLIYFTSKKPSGVPDRFSGSGSGTDFTLKISRVEAEDVGVYYCQTYAAPLGPMFGQGTKLEIKRTVAAPSVFIFPPSDEQLKSGTASVVCLLNNFYPREAKVQWKVDNALQSGNSQESVTEQDSKDSTYSLSSTLTLSKADYEKHKVYACEVTHQGLSSPVTKSFNRGEC
notes: Heterodimerized antibody with N434A/Y436T/Q438R/S440E
B1: the dissociation constant Kd was 460 nM with human FcRn [1]; 190 nM in experiment [8]; 0.028 nM in experiment [9]; 1.3 nM in experiment [10]; 0.6 nM in experiment [11]; 260 nM in [12]. Further, the “Relative value to KD between G1m and hFcγRs” value in experiment [2] was determined as 5.6; in experiment [3], 1.6; in [5], 1500; in [6], 5.6. The “Relative value to KD between G1m and hFcRn” value with human FcRn [4] is 2.8. Further, in [7], the Binding amount came out at 0.023. In experiment [13], the Relative binding amount came to 2.

B2: 04H1389-Ks461/04L1615-k0MT//04H1389-Hs443/04L1615-k0MT (antibody, human IgG1, kappa)
heavy 1: B1 heavy 1 with A439N, T441Y, R443Q, E445S
heavy 2: EVQLVESGGGLVKPGGSLRLSCAASGFTFSSKTMNWVRQAPGKGLEWVSSISTQSHYIYYAESVKGRFTISRDNAKNSLYLQMNSLRAEDTAVYYCARYGKREDMLWVFDYWGQGTLVTVSSASTKGPSVFPLAPSSKSTSGGTAALGCLVKDYFPEPVTVSWNSGALTSGVHTFPAVLQSSGLYSLSSVVTVPSSSLGTQTYICNVNHKPSNTKVDKRVEPKSCDKTHTCPPCPAPELLAGPSVFLFPPKPKDVLMISRTPEVTCVVVDVSHEEPEVKFNWYVDGVEVHNAKTKPREEQYNATYRVVSVLPVLHQDWLNGKEYKCKVSNDALPAPEEETISKAKGQPREPQVYTLPPSREEMTKNQVSLSCAVKGFYPSDIAVEWESNGQPENNYKTTPPVLDSDGSFFLVSKLTVDKSRWQQGNVFSCSVMHEALHNHYTQKSLSLSP
light: B1 light
notes: Heterodimerized antibody
In the case of B2, the Kd with human FcRn [1] was found to be 1700 nM; in experiment [8] it was 160 nM; in experiment [9] it was 0.03 nM; in experiment [10], 1.2 nM; in [11], 0.56 nM; in experiment [12], 250 nM. Moreover, the “Relative value to KD between G1m and hFcγRs” value is 6.7 in experiment [2], 1.5 in experiment [3], 1630 in experiment [5] and 5.9 in experiment [6]. In addition, the “Relative value to KD between G1m and hFcRn” value in the experiment with human FcRn [4] is 0.8. In addition, the Binding amount in experiment [7] was 0.024. In experiment [13], this molecule gave a Relative binding amount of 2.1.

B3: 04H1077-G1m/04L1034-lam1 (antibody, human IgG1, lambda, V domains shown)
VH: EVQLVESGGDLVKPGGGLRLSCAASGFTFSSRTMNWVRQAPGKGLEWVSSISTRSGYIYYAESVKGRFTISRDNAKNSLYLQMNSLRAEDTAVYYCARYGKREDMLWVFDYWGQGTLVTVSS
VL: QSALTQPPSASGSPGQTVTISCDGPSTDVGDYNWVSWYQQHPGKAPKLMIYFTSKKPSGVPDRFSGSKSGNTASLTVSGLQAEDEADYFCSTYAAPLGPMFGGGTKLTVLG
In the case of B3, the “Binding to Human CTLA4” value in experiment [14] is 0.114 per unit amount of antibody; in [15], 0.041 per unit amount of antibody; in experiment [16] it was 0.004 per unit amount of antibody; in [17], 0.007 per unit amount of antibody. Moreover, the affinity in experiment [18], expressed as Kd, was 320 nM.

One may read the Kd as the free concentration of one partner at which half of the binding sites on the other are occupied at equilibrium, for simple one-to-one binding.
